In patent publication US20210077575A1, “NANOPARTICLES FOR THE TARGETED DELIVERY OF THERAPEUTIC POLYPEPTIDES” (Cedars-Sinai Medical Center, priority 2018, published 2021):

Experiment: Nanoparticle size by dynamic light scattering (Example 2)
Type: physicochemical
Details: distribution by number; FIG. 2D-F, GeloninD10 series
Method: The composition comprising the HerPBK10-GFPD10 nanoparticles and the composition comprising the HerPBK10-GeloninD10 were then subjected to dynamic light scattering (DLS) to determine the diameter of the resulting nanoparticles. Solutions of GFPD10 (no HerPBK10), GeloninD10 (no HerPBK10) and HerPBK10 (no GFPD10 or GeloninD10) were also measured by DLS.

B1: GeloninD10: cytotoxic polypeptide gelonin with a C-terminal deca-aspartic acid tag (protein)
chain: GLDTVSFSTKGATYITYVNFLNELRVKLKPEGNSHGIPLLRKKCDDPGKCFVLVALSNDNGQLAEIAIDVTSVYVVGYQVRNRSYFFKDAPDAAYEGLFKNTIKTRLHFGGSYPSLEGEKAYRETTDLGIEPLRIGIKKLDENAIDNYKPTEIASSLLVVIQMVSEAARFTFIENQIRNNFQQRIRPANNTISLENKWGKLSFQIRTSGANGMFSEAVELERANGKKYYVTAVDQVKPKIALLKFVDKDPKDDDDDDDDDD
- diameter / measured size (DLS): about 2.9 nm
